Consider one protein from US20170000909.

Data set [1] deals with T1, M4 micelle.
T1 chain: GPLGLAGKWAAAAKAAAAK

In data set [2] the target is T2, Peptide 1.
T2 chain: GPLGLAGKWAAAAKAAAAK

The target of data set [3] is T3, M1 micelle of fluorescein labelled PPA-1 (not fully specified).
T3 chain: GPLGLAGKWAAAAKAAAAK

B1: matrix-metalloproteinase 9 (protein)
chain: MRTPRCGVPDLGRFQTFEGDLKWHHHNITYWIQNYSEDLPRAVIDDAFARAFALWSAVTPLTFTRVYSRDADIVIQFGVAEHGDGYPFDGKDGLLAHAFPPGPGIQGDAHFDDDELWSLGKGVVVPTRFGNADGAACHFPFIFEGRSYSACTTDGRSDGLPWCSTTANYDTDDRFGFCPSERLYTQDGNADGKPCQFPFIFQGQSYSACTTDGRSDGYRWCATTANYDRDKLFGFCPTRADSTVMGGNSAGELCVFPFTFLGKEYSTCTSEGRGDGRLWCATTSNFDSDKKWGFCPDQGYSLFLVAAHEFGHALGLDHSSVPEALMYPMYRFTEGPPLHKDDVNGIRHLYGPRPEPEPRPPTTTTPQPTAPPTVCPTGPPTVHPSERPTAGPTGPPSAGPTGPPTAGPSTATTVPLSPVDDACNVNIFDAIAEIGNQLYLFKDGKYWRFSEGRGSRPQGPFLIADKWPALPRKLDSVFEERLSKKLFFFSGRQVWVYTGASVLGPRRLDKLGLGADVAQVTGALRSGRGKMLLFSGRRLWRFDVKAQMVDPRSASEVDRMFPGVPLDTHDVFQYREKAYFCQDRFYWRVSSRSELNQVDQVGYVTYDILQCPED
For the protein B1, the “Michaelis-Menten kinetics (Kcat and KM) from fluorescein signal increase upon cleavage of the Dabcyl label” value in data set [1] was “this substrate for MMP-9 is comparable to standard substrate”. The results for the “MMP-9 cleavage efficiency (RP-HPLC after 24 hrs)” value in data set [2] and in data set [3] were “quantitative” and “estimated to be 41%”, respectively.
